Laboratory results reported in the RNAGym collection of RNA variant scans (doi:10.7554/elife.80360).

B1: Hammerhead Ribozyme (parent)
chain: ACCGGAUGUGCUUUCCGGUCUGAUGAGUCCGUGAGGACGAAACAG

Variants of: B1
Assay: self-cleavage, relative activity (ratio to wild type); higher = more cleavage; co-transcriptional

Variant	self-cleavage
U9A U32G	0.539
G4C C38A	0.478
G5U A37C	0.403
A34U C43A	0.393
C3G G45U	0.374
G31C A44G	1.53
U7A C11G	1.52
C20G G33U	0.367
U28A A34U	0.678
G22C G45U	0.384
G22C G45A	0.328
G10C U24G	1.06
G10A G39A	0.373
C15A U32C	0.952
G4U C30U	0.558
U32A G35C	0.796
C16G G35A	0.459
U13G C38U	0.724
G27U U32A	0.547
C11U A41U	0.278
U32C C38G	0.691
U7C C20U	0.492
C2G G33C	0.443
U19A A42C	0.369

Variant	self-cleavage
G10A C29A	0.654
G10A C29U	1.17
G25A C29A	0.348
U7G U12C	1.42
A37C C43U	0.392
C3G G31C	0.527
G18U G27C	0.427
A1U U21C	0.379
U9C G22U	0.307
U9G A40U	0.304
C2A C38U	0.606
G39A A41C	0.341
G10U G39A	0.405
G5A C29G	0.464
U14C C38A	0.532
G10A C20G	0.303
G5C U32G	0.452
C16U C29U	0.988
U32C C43U	0.661
G31U G36C	0.568
A6U G36C	0.334
C30A A42U	0.312
G17C C30A	0.458
G8A A40C	0.683

Variant	self-cleavage
G17C G31C	0.563
U19C G25C	0.378
U32A G36A	0.721
A23U G33U	0.551
U7A G36C	0.394
G35A G45C	0.437
C3U U24G	0.945
C30A C43U	0.431
C2A U12C	0.5
A42C A44C	0.262
U9A A42U	0.332
C2A A41G	0.294
G33A A40G	0.503
U28A G36A	0.339
C15U G39C	0.407
U19G C38G	0.354
G27A	0.897
C11U G27A	0.666
C11A G22A	0.348
C15A C29A	0.457
C20A A41U	0.335
A6C A42C	0.35
C30U A42C	0.314
G5C C30A	0.623

Variant	self-cleavage
G17U A37U	0.586
A26U C29G	0.475
G35U A42C	0.384
C2G G22A	0.292
A23C U24G	0.464
U12C A34U	0.668
G33C G39U	0.364
U14A G18A	0.327
U14A G18C	0.456
A37U A41C	0.34
U13A U28C	1.58
G18C C29A	0.374
C29G A41U	0.29
G17U A34U	0.531
G17U A34C	0.46
G5U A34G	0.882
A1U	0.853
U24A G39C	0.496
C29A U32C	0.866
C16G U28C	0.269
G5C C38A	0.264
C3A A34C	0.359
C11U C38G	0.611
U12G A42C	0.239

Variant	self-cleavage
C20A G35U	0.345
G39C A44G	0.638
G5U A26U	0.449
U9G G25U	0.242
G33A A34C	1
U7A U9C	1.04
C15U A37C	0.714
U21C A37G	0.866
U14A G17A	0.586
A26U	0.848
G10C A26G	0.304
U12A U14G	0.565
G10A	1.09
C15U C43G	0.305
A6C C43A	0.287
U21G G27U	0.296
U21G G27A	0.39
A1U U9G	0.348
U24C A34U	0.824
G5A G33A	1.44
A6G A37C	0.656
G33U C38A	0.824
A23U G36A	0.375
U9A C15A	0.699

Variant	self-cleavage
C20A A44C	0.366
G17U C43U	0.379
G33U A40C	0.726
C29A A40C	0.354
U19C U21C	0.251
U14C U32A	0.825
A40G A44C	0.304
U7C A44C	0.631
U24A U28C	1.27
U13C U19G	0.311
U7G A23U	0.228
G10U G17U	0.848
G10A G25C	0.362
U9A G18U	0.546
A1C C20U	0.376
G33U G36U	0.618
C15G G22C	0.331
G4C U32A	0.743
G8A G18A	0.664
G17U A41G	0.375
G4C A37U	0.294
U21A A34U	0.359
G25U G35C	0.259
U13A U19A	0.36

Variant	self-cleavage
U7C A42G	0.306
C2G A34C	0.352
G17C A23C	0.327
A1U A41U	0.377
G22C C30U	0.36
C3U C29U	0.926
C11U G39A	0.383
U7G G10U	1.46
C3G U7C	0.462
U9C G31U	0.948
G5U G35C	0.361
C2A G25A	0.31
U21G C30G	0.373
C20U C38U	0.501
U12G G45A	0.719
G5C U24G	0.499
U7G A34U	1.53
A6C A37U	0.449
U13C A40U	0.277
G22A U24A	0.378
G36A C38G	0.342
U21C G39C	0.378
G5A A40C	0.476
G5A U12C	1.07

Variant	self-cleavage
U24A G45U	0.832
G8C U32A	1.28
U19A A23G	0.426
U13G G31A	1.1
G33C A41U	0.459
G17C G35C	0.403
C43A A44U	0.391
C3U C20U	0.523
C3U C20A	0.465
U28C G31U	0.854
A23G A34U	0.364
C20U U21A	0.358
A1U U12C	0.546
C16A G22C	0.294
A26C A34G	0.349
G35A C38A	0.482
C15U A40U	0.307
A23C G27C	0.328
G8C A37U	0.842
C20A G36U	0.306
G10A A44C	0.517
C3U G18U	0.453
U12A U24A	0.937
G17A A42G	0.327

Variant	self-cleavage
G10U G18C	0.682
C30A A34C	0.798
C3U G27C	0.599
C3U G27U	0.554
G8C C43A	0.343
G18C C43G	0.358
C3G U14A	0.347
C2U G17U	0.409
G5A U14C	1.49
U9C U12C	0.982
U7G	1.37
G5C G18C	0.34
U19A G22C	0.356
G22C A42U	0.368
C30G A40G	0.305
C30G A40U	0.283
C2U A23G	0.385
U19C C29A	0.374
U7G G22C	0.389
A34U A37U	0.412
C15U U32G	0.623
U28A G35A	0.405
A1G U32G	1.45
A1G U32A	1.68

Variant	self-cleavage
U21A A23U	0.34
C15U G17U	0.476
U7A C29G	0.663
U7A C29U	0.823
C2G G35C	0.339
C11A C43A	0.357
C16U A40U	0.301
G35C C38A	0.398
G17C U28C	0.276
G18A U28C	0.388
U7C G45U	0.622
A23G A44G	0.55
G10U G36U	0.587
G10U G36C	0.929
U19A U24G	0.327
U7C G27U	0.412
G18C U32C	0.446
C30G A37C	0.337
G25A A42U	0.333
A1G G5A	1.04
C11A U24G	1.34
G8C U24A	1.17
U24G G36A	0.862
U12G	0.976

Variant	self-cleavage
C20U U24A	0.799
U9G A26C	0.32
A6U U24C	0.573
U9A U24G	0.919
C11A G27A	0.928
U13C G39C	0.471
G4A G35U	0.382
U21G A34C	0.278
U19A A41U	0.308
U19G G35A	0.282
G22C A44G	0.672
A1C U12A	0.471
G5A A44G	1.29
U24C A41U	0.408
C2U C11U	0.739
U13G A26G	0.301
U32A G39A	0.367
G8U U28G	0.789
C38U G45U	0.593
A6G	0.806
C15G G17U	0.321
G4A A40U	0.325
G10U C43G	0.405
U12G A34U	0.897

Variant	self-cleavage
U13A G36U	0.713
C16A U21A	0.668
G18U C30A	0.556
G4A U12G	0.541
A26U U28G	0.437
C16A C38A	0.631
U28G A42C	0.24
U9A A23C	0.46
C29A A34U	0.563
U24A A41U	0.279
C16U A41G	0.376
G18C G25A	0.328
U14C U19G	0.334
U32C G33A	0.924
C3A A42G	0.279
A37U A42G	0.271
A37U A42C	0.304
U9G G22A	0.321
U24C A37G	0.9
G5A A6G	0.82
U7G A42U	0.326
C11A G39A	0.303
U28C A44C	0.497
C15A U19C	0.366

Variant	self-cleavage
A23U C38A	0.381
C16G G22A	0.336
G39C A41C	0.351
U21A G36C	0.283
A26U G33C	0.546
U24C G27C	0.559
G31C C43A	0.392
U9A C20A	0.438
A26C U32A	0.659
U19A U32G	0.33
U7C A26G	0.305
C15G A23C	0.301
C2A C20A	0.292
C15A A34U	0.879
C38A G39C	0.4
A1C A34C	0.477
A23C G36U	0.335
U32G G33C	0.966
C20U A37U	0.403
U7G A26U	0.717
A1C G25U	0.377
G4A G33U	0.597
G36C A40C	0.4
U19G A34U	0.289

Variant	self-cleavage
U9G C29U	0.713
U9G C29G	0.534
C2G C16U	0.299
G17U G45A	0.436
C30U A41U	0.419
A1C U9A	0.399
C20A G27U	0.302
G36A A44U	0.332
G27U G33U	0.535
C11A U13A	1.46
A1U U24G	0.508
U21C U32A	0.71
G18U G22C	0.372
A1G A41G	0.436
G10U U24A	1.01
A6C G27U	0.38
C16U A26C	0.467
U24G	1.03
C11U C20U	0.544
U24A C43A	0.341
G4U A37C	0.329
G25C G35U	0.357
